Experimental data: a protein production outcome set (Wang et al. 2014)

Assay: label from the status in PepcDB records
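Further: failed if final PepcDB status was selected cloned or expressed and not failed if soluble or beyond.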

Sequence | protein production
RTFAVAAVAALVLPLSACGSGGDGGSSTDASGKVEGDITFQTWNLRANFKDYFEGLIADFEKKYPDTHVKWVDQPGEGYADKISADAAGGTLPDVVNVSPDLVAPLAKAGLALDLDKAAGQYEKEYLEGAWASHRIPGMDGTYAFPWYLNTGPLFYNKSLFEKAGLDPEQPPRTYDEVFDAALKIADKTDGEVATLANVPTIEDFGRYGVPLMNKEGTAFAFNDAKGVQLLARYKELYDAKALDPQALTATPESSGKKFLTGAVAMNPGSALDLANFKKQAPNLYENIGITDQITSTGHVNMYVMGLMVNAQSQRKPAAVAFAHYVTDAAHQMSFAKQVAIFPSTAGSLDDPYFTKEDGTDETRVRVAAAKSLKTAVNYTPVLFSEQMKTELRNEVAKALQGKQSPKEALDNAVKACDRLLQ | failed
MVPEFIILGAAILLSICDLFFKLNHRYVALGAIAAIVLAIVSLITLYSEPAGDILNGSFVLDGFSKGFKTLLLGASALILCTAMSDDKKNPIEDKGEYYYLFLMALLGAMFMASSVDFITLFVGLELLSLSSYILVGIRKKSRASNEAAMKYVISGGIGTAITLFGMSYLYGITGSTNIVDMQKVLTGELASGIQLLLALAFLLLLVGLSFKIATVPFHMWAPDVYEGAATPVTAFLGTISKIAGFLLIIRLFLMIFASVLIQGDMQSLYGHMSIYIAVLASITMIVGNVVALKQYNIKRLFAYSGIAHAGYLLVPLVALSPFTMDSMWFYMLAYMLMNIGAFAIIHGLILQNNEENITIFTGLYKRSPFTAIMMTIFILSLAGIPGTAGFIGKINIFLGALHVEPAHYVLASIMMGTTVVSFVYYFRILQQMFFRTGETEERIRLPLNIKVVMSLCAISIVILGIMPMIGYNFFYEYFPLMKDFFFLGNVVQ | not failed
MRRSLRHGFTALLTTWALLLPTVAVAQEPIDNVPEVTADNAETLEDIIDDALTPTTRLEAPNTDLCPYKESPSPARSTSEVVAPGAQTPALVPVPSVPAGGEKLATCGVITPNGFELPEDSDETITASAWMVFDIDSGEIIAAKDPHGRYRPASIIKVLLSLVAIDELNPTTVVTGTMEAANIEGSRVGVGEGGQYTVDQLLHGLLLASGNDAAYLLAQELGGDQATLEKVNALAKELGTQDTFVATYSGLDAPGMSTSAYDMSLIYQHAWQNPVFESIISTDHIDFPGWGDNEGFQVWNDNALFMNDPDGIGGKTGYTDDANHTFVGGLDRGGRRLAAVLLDSTVSDIRPWEQARLLIDASLPITPGSGVGQLGSGSANDVAPATPELPEPTDNLTSGEGGSQNTLLKLVVPIGIIVLLLIAALAWTFRSPKKKN | failed
ETEDQTNMIAIQADGCYIVDALTPIEDFNERFNAEFPDDDYDTIGGLVTEAIGHLPETGDELTIGRFAFRVAKANARRIHILHVTVLP | not failed
LTAIEARVIGCLIEKEVTTPDQYPLSLNALTNASNQKSNREPVMALSESDVLDAVDALIERRLVSDESAFNSRVSKYQHRFCNTEFGDLKLSEQEKGIICCMLLRGAQTPGEIRTRTNRLATFHDVKEVEAVLEHLASEEKGPLVVKLPREAGKRESRYMHLFCGEVDVSAMAAAVPAT | failed
MGKTAIKSTAKVLSFVVQKHWATRLHYDFRLELEGTMKSWAVPKGPSFDPNDKRMAVHVEDHPISYNSFEGEIPSGQYGAGKVIIWDKGTWIPLEDPHKGYRDGKLKFELRGLKLKGHWALVRMRKEENKKQEPWLLIKEKDEYVRSSREYSVVDEMPDSVAELEHHHHHH | not failed
AIVKRFEPLLLVPIGFGGILSNLPDAGLAMSAIENAVYAAKPEVMTAFSEVLQLSSYMPADIKQALSSATPLQMTTLHLLAEQYQYSDGM | failed
LEIKQLLNIYRDLQLGHFCAFYQPQKHIDSGGVVAFEALARRVIGKGLYEMPDRFFPILEKYHLIPTLTEVMVRDILTFLMTEDAVLQDITIGVNIPGKMLTDGSFYRLLLSVAEEKQAQHALHRLSVEITEHDLIADFDAAKHEIYKLKSLGIRCALDDFGTGYSGYEYLCEIPFDVVKIDGRYIQSLGKAESSTVILQSMISSIKSLSMQVIAEWVDSDQQYQILQEMGCDLVQGYLVSPAISPQQVLNYLHNKLSP | failed
MGVVHHSVYAVYLEAARVDFLERAGLPYHRVEARGVFFPVVELGLTFRAPARFGEVVEVRTRLAELSSRALLFRYRVEREGVLLAEGFTRHLCQVGERAARIPEDIYRALSVLHLK | not failed
MGPVPIKLALVIPNYNHSAAISQALSELAALNLPCYLIDDGSNDETRYLLQSLAEQHDWVTLLQHPYNRGKGAAVMTGLRSAYRDGFTHALQVDADGQHNLSDIPAMLAKAQAKPDALISGKPEYDKSVPKGRLYGRYLTHFWVWVETLSFDIQDSMCGFRVYPLAATERLFSKQALTERMDFDIEILVKLYWQGVEILFHPTKVIYPENGVSHFQCVADNVRISKLHTRLFFGMLKRLPQLLRRKQAAKSTSSAHTATHWSAMKERGSYWGIKLLVESYRFGGHWLCRAIMYPVICYFFLTGKVSREASRDFLRRVQHLEPQHPQLNQPVGWRDSLNHFIAFGNAALDRIDAWCDRIQLSQVDFPDRQVLADQLESGKGAVLLVSHLGNLELCRAISIHQRKVKVNVMVLTSHAENFNNVLKQLNPNSSLNLIQVTELNPATSMLLQQKIEDGELVVIAGDRTSSHAQGRVVYAPFMGQDAAFPQGPFILAGLLDCPVYLMFCLREQGRYRVHLERFAETLKGPRAGRMERLQQAVYRYSERLEHYARREPLQWFNFFDFWRDDNQVNRATSAHKTTAALPEQERTTDRTEHLLEHHHHHH | not failed
MNLMRFLRRPISLRQRLILTIGAILLVFELISVFWLWHESTEQIQLFEQALRDNRNNDRHIMREIREAVASLIVPGVFMVSLTLFICYQAVRRITRPLAELQKELEARTADNLTPIAIHSATLEIEAVVSALNDLVSRLTSTLDNERLFTADVAHELRTPLAGVRLHLELLAKTHHIDVAPLVARLDQMMESVSQLLQLARAGQSFSSGNYQHVKLLEDVILPSYDELSTMLDQRQQTLLLPESAADITVQGDATLLRMLLRNLVENAHRYSPQGSNIMIKLQEDGGAVMAVEDEGPGIDESKCGELSKAFVRMDSRYGGIGLGLSIVSRITQLHHGQFFLQNRQETSGTRAWVRLKKDQNVANQI | failed
MSKKKGLSAEEKRTRMMEIFSETKDVFQLKDLEKIAPKEKGITAMSVKEVLQSLVDDGMVDCERIGTSNYYWAFPSKALHARKHKLEVLESQLSEGSQKHASLQKSIEKAKIGRCETEERTRLAKELSSLRDQREQLKAEVEKYKDCDPQVVEEIRQANKVAKEAANRWTDNIFAIKSWAKRKFGFEENKIDRTFGIPEDFDYID | failed
MLLYIHGFNSSPFSDKAVITARYMAEYHPSLTFHQPQLPNTPKAAMALLQSYVEAAQQANEPLNYIGSSLGGYFASYLAERYGGRAVLVNPAVKPFELFDEFMGPQFNPYTQEHYQVLPEHKREVAEFNTPVIRNPERFLVLLQTGDEVLDYREALHKYHHCQLRIESGGDHSFVGYERYLQTVSQFLH | failed
MNKFELYHPILTEHFALDWLTHSKVRDIFELRHDPEIAKASDRDIDATIEDTTTYVNQMMRLVMNNEALIWGITDQNTHEFLGTFCIWDFDQAQKSASVRFEILRNQQHKGIMSEVLRRMSIFSFEELGLEKLFATALKNNTIARTLLEQVGFSAVASQTDNQNITLELNRH | failed
MKRYQGRIIATVLAMTFIMFWNFLFYGVLGNKINWTVDLLFTLVTLISVWWLTLYIDESNQLVYKLKESEKKYKELSSETNRIMDNLQEIVFQTDRIGYITFLNQAWTTLTGYSVEESLGTMYNDYFDHEERISNHLIAQLKNKEPEGRIEVLYHRKDGSKFWGEVHYKLYYKNGQFTGSLGTLTDVTERKKAEMELFKSNQRLAMQSQKLAMAGQLAAGIAHEVRNPLTSVNGFLQLMKAEYPDRKDYFDIIFSEIKRIDSVLGELLVLAKPHQVQFKKIKINSVLQQVATLLETNAVLSHIKIEKAFQHGEEWEINGDENQIKQVFINLIKNGIEAMPDGGKITISSKAEGDCVKISIKDEGGGISQADLAKLGEPFFSTKEEGTGLGLTICLNIIGAHNGEMKIDSKLGEGSTFHILLPVDKGAASEENDIQQGCCSRATIK | failed
MSLSSPNILLTRIDNRLVHGQVGVTWTSTIGANLLVVVDDVVANDDIQQKLMGITAETYGFGIRFFTIEKTINVIGKAAPHQKIFLICRTPQTVRKLVEGGIDLKDVNVGNMHFSEGKKQISSKVYVDDQDLTDLRFIKQRGVNVFIQDVPGDQKEQIPDEGHHHHHH | not failed
MRLVVLSDIHGNLGAFEAVLADIATQDVDDIISLGDNVGYGPDPGPVLRLLRQRGIDSVLGNHEAAIADRRRRRRFNSQSREALDLTEAWLDADGRACIASMPPVLLRHGCRFVHGMPPDSPFTYLFEFMGRRLPKVFTLFAEALCFVGHTHDLEVLRCDETGAVASVLLPTASPDVAGQMPPGPLPGPSPDATLATSPGAQPEGLTLSTASPRVTVQTLVLDAGARHLVNVGSVGQPRDGDPRAKYVVWDDTARTLTVRRVAYDVAAAVRRFAEAGVAQRYIDRLG | failed
MYLISELAVKAGLSRTTLLYYEKLGLIRGQRLDNGYRYYNESDLQQLFLIQQLQSAGLSLKECEECLQAKLDRTLLERRLSQLDDEIEKKVRARELLLALLGERPQRELHHSLSKHAPNAYLSWLNTQGYSEKEALRLKWLSKDMNEHDIYMQDFMTVFASLQHWGPGSEQDSLKAISLMSMQNMQHILDIGCETGLSTLLLAENSSAHITAVDNEPIAIEQLEKQRQHSPWKEQISPVLGSMTALPFAAKSFDAIWAEGCVYIMGMENALKQWKPFLADNAILMVSDLVWLTENPKPEAQEFWQSEYPDIQSIPSRIKLFKKLGYEVMEHFSLGIDAWQNYWLPLQNRVQELKLRLTNSQALSDIEKEIAIYERSAAKDFTYQYFVLKLNH | failed
MSIEYKSEAAAVRRFPGSIVVMGVSGSGKSSVGEAIAEACGYPFIEGDALHPPENIRKMSEGIPLTDDDRWPWLAAIGERLASREPVVVSCSALKRSYRDKLRESAPGGLAFVFLHGSESVLAERMHHRTGHFMPSSLLQTQLETLEDPRGEVRTVAVDVAQPLAEIVREALAGLARL | not failed
MSNHIDRDVINALIAGHFADPFSVLGMHRTDAGLEVRALLPDATDVWVIEPKTGRKVGKLECLDSRGFFSGVLPRRKNAFRYQLAVTWHGQQNLIDDPYRFGPLLQ | not failed
MAREFKRSDRVAQEIQKEIAVILQREVKDPRIGMVTVSDVEVSSDLSYAKIFVTFLFDHDEMAIEQGMKGLEKASPYIRSLLGKAMRLRIVPEIRFIYDQSLVEGMRMSNLVTNVVREDEKKHVEESN | not failed
KSAVTAQSILEKADEIRFPQDSFQVNVAIRTAAPDHAEDLYRYQVLSKGNENSIVMITEPASERGQAILMKGRDLWVFMPSVSQPIRLSLSQRLTGQVANGDIARANFTGDYHPQLLRNESIDDEDYYVLELTGIDRSVTYQKVLLWVNQSNFRPYKAEFYSVSGRLLKTSRYENFDNILGEMRPTRIIMEDALKSGEVSVLDYSDMKLRDLPDKIFTKDYLKRLE | not failed
MPFATNGAPYYEQLVMQIKQQIVQEVLRPGDQLPSIRAMASEMHLNPNTVSKAYQILEHQRAVYTVKGRGTFVSESSQIATDSNAVDDLQTRLQSLLTEAQFLGISAQQVQAWVTTAYQKGESRDEYPS | failed
